Measured values from patent US20070207519A1 (SANDOZ, published 2007).

Biological target: T1, β-subunit of wild-type CPC acylase derived from Pseudomonas sp. SE83 (Pseudomonas sp. SE83, UniProt P15558 240-774)
T1 construct: About 58 kDa subunit of 535 amino acids; also called AcyII β-subunit; CPC acylase β-subunit
T1 sequence: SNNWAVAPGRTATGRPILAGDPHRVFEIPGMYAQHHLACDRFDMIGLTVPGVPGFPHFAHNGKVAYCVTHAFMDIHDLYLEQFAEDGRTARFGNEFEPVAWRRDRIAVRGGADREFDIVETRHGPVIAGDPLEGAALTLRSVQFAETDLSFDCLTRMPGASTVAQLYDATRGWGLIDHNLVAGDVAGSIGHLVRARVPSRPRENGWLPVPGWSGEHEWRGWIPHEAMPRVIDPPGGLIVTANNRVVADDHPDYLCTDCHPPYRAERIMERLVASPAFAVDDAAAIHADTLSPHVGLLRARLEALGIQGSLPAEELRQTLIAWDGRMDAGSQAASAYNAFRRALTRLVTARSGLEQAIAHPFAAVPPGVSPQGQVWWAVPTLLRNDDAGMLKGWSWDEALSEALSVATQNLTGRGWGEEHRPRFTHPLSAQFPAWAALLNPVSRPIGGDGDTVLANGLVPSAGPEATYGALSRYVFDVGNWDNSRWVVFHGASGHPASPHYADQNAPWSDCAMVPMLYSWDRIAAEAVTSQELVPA
Experiment: non-denaturing PAGE and MALDI-TOF of the purified enzyme (single species of about 83 kDa) against denaturing SDS-PAGE (bands of 25 kDa and 58 kDa)
From the text: Further, the active fraction of wild-type CPC acylase obtained in Example <2-1> was subjected to non-denaturing PAGE and Coomasie blue staining. As a result, a single band was detected at a position corresponding to the molecular weight of about 83 kDa, which means that the wild-type CPC acylase was purely purified (FIGS. 11a to 11c). Together with the result of non-denaturing PAGE, MALDI-TOF mass spectrophotometry analysis confirmed that the molecular weight of purified enzyme (that is, the active CPC acylase) is about 83 kDa. Furthermore, about 25 kDa of band corresponding to α-subunit and about 58 kDa of band corresponding to β-subunit were detected by denaturing SDS-PAGE.

binding result: binds
B1: α-subunit of wild-type CPC acylase derived from Pseudomonas sp. SE83 (enzyme)
chain: TMAAKTDREALQAALPPLSGSLSIPGLSAPVRVQRDGWGIPHIKASGEADAYRALGFVHAQDRLFQMELTRRKALGRAAEWLGAEAAEADILVRRLGMEKVCRRDFEALGAEAKDMLRAYVAGVNAFLASGAPLPIEYGLLGAEPEPWEPWHSIAVMRRLGLLMGSVWFKLWRMLALPVVGAANALKLRYDDGGQDLLCIPPGVEAERLEADLAALRPAVDALLKAMGG
notes: About 25 kDa subunit of 229 amino acids; also called AcyII α-subunit; CPC acylase α-subunit
